Measured values taken from patent US20240024498A1 (JIANGSU HENGRUI PHARMACEUTICALS, published 2024).
Like-named read-outs stand apart in the source and are kept apart here.

Key:
[1] = molecular target: T1, human Claudin18.2 (human); assay: cell-based ELISA (absorbance at 450 nm) on fixed NUGC4 cells stably expressing Claudin18.2
T1 construct: also called hClaudin18.2; huClaudin18.2
Experimental: (§1) Cell-based ELISA assay was used to test the binding properties of the Claudin18.2 antibodies. The stably transfected Claudin18.2-expressing NUGC4 cells were cultured in a 96-well cell plate (Corning, 3599). When growing at 90% density, the cells were immobilized with 4% paraformaldehyde for 1 h. The plate was washed 3 times with PBST buffer (pH 7.4 PBS containing 0.05% Tween-20), and a PBS-diluted 5% skim milk (powdered skim milk from Brightdairy) blocking solution was added at 200 μL/well. The plate was incubated in a 37° C. incubator for 2.5 h or was let stand at 4° C. overnight (16-18 h) for blocking. After blocking, the blocking solution was removed. The plate was washed 3 times with the PBST buffer, and then a test antibody that was diluted with a sample diluent (pH 7.4 PBS containing 1% skim milk) to different concentrations was added at 50 μL/well. The plate was incubated in a 37° C. incubator for 2 h. […] The plate was incubated at 37° C. for 1 h. The plate was washed 6 times with PBST, and then TMB chromogenic substrate (KPL, 52-00-03) was added at 50 µL/well. The plate was incubated at room temperature for 10-15 min, and the reaction was terminated by adding 1 M H₂SO₄ at 50 μL/well. The absorbance at 450 nm was read using an MD Versa Max™ microplate reader, and the binding EC50 value of the Claudin18.2 antibody to Claudin18.2 was calculated.

[2] = molecular target: T1, human Claudin18.2; assay: flow cytometry on HEK293/hClaudin18.2 cells, Scatchard plot
Experimental: On the day of experiment, HEK293/hClaudin18.2 cells were collected into a U-bottomed 96-well plate at 1×10⁵ to 2×10⁵ cells per well. A human Claudin18.2 antibody that was 2× diluted serially (12 concentration points) from an initial concentration of 5 μg/mL was added, and the plate was incubated at 4° C. for 1 h. IMAB362 was used as a positive control, and a negative control with no antibody was also provided. The antibody was removed by centrifugation, and FITC anti-human IgG Fc antibody (200×) was added at 100 μL/well. The plate was incubated in the dark at 4° C. for 30 min and washed twice with PBS+2% FBS before flow cytometry analysis. BD FACS CantoII was started and preheated, and then the BD FACSDiva software was run to start a new experiment. […] The samples in the U-bottomed 96-well plate were tested at the saved voltage, and data were recorded. The experimental data were analyzed using Flowjo software to obtain a Geo mean, and an MESF-Geo Mean standard curve was fit according to the instructions for Quantum™ FITC-5 MESF Kit. The molar concentration of the human Claudin18.2 antibody bound to HEK293/hClaudin18.2 cells and the free antibody concentration were calculated according to the concentration fluorescence value of the FITC anti-human IgG Fc antibody, and the Bmax and the dissociation constant KD of the antibody were calculated through Scatchard plots.

[3] = molecular target: T1, human Claudin18.2; assay: cell-based ELISA on fixed NUGC4 cells stably expressing Claudin18.2
Experimental: as §1

[4] = molecular target: T1, human Claudin18.2; assay: cell-based or functional assay
[5] = molecular target: T1, human Claudin18.2; assay: cell-based or functional assay; remark: listed apart in the source
[6] = molecular target: T1, human Claudin18.2; assay: cell-based ELISA (absorbance at 450 nm) on fixed NUGC4 cells stably expressing Claudin18.2; remark: listed apart in the source
Experimental: as §1

[7] = molecular target: T1, human Claudin18.2; assay: cell-based ELISA on fixed NUGC4 cells stably expressing Claudin18.2; remark: listed apart in the source
Experimental: as §1

[8] = molecular target: T1, human Claudin18.2; assay: cell-based ELISA (absorbance at 450 nm) on fixed NUGC4 cells stably expressing Claudin18.2; remark: listed apart in the source
Experimental: as §1

[9] = molecular target: T1, human Claudin18.2; assay: cell-based ELISA on fixed NUGC4 cells stably expressing Claudin18.2; remark: listed apart in the source
Experimental: as §1

Row | Binder | Emax [1] | EC50 [3] | Emax [6] | EC50 [7] | in vitro cell killing EC50, NUGC4-claudin18.2 high expression cells (CellTiter-Glo) [5] | in vitro cell killing EC50, NUGC4-claudin18.2 low expression cells (CellTiter-Glo) [5] | in vitro cell killing Emax, NUGC4-claudin18.2 high expression cells (CellTiter-Glo) [5] | in vitro cell killing Emax, NUGC4-claudin18.2 low expression cells (CellTiter-Glo) [5] | further results
1 | ADC-4 (antibody, human IgG1, kappa, V domains shown, compound 9-A coupled to sulfhydryl groups after TCEP reduction; mean drug loading n=4.06 per antibody; positions not given) VH: EVQLVESGGGLVQPGGSLRLSCAASGFTFSDYGIHWVRQAPGKGLEWIAYISRGSSTIYYADTVKGRFTISRDNAKNSLYLQMTSLRAEDTAVYYCARGGYDTRNAMDYWGQGTTVTVSS VL: DIVMTQSPDSLAVSLGERATISCKSSQSLLNSGNQKNYLAWYQQKPGQPPKLLIYGASTRASGVPDRFSGSGSGTDFTLTISSLQAEDVAIYHCQNDLYYPLTFGQGTKLEIKR | – | – | – | – | 12 nM | 299 nM | 85 | 61 | –
2 | ADC-3 (antibody, human IgG1, kappa, V domains shown, compound 9-A coupled to sulfhydryl groups after TCEP reduction; mean drug loading n=2.51 per antibody; positions not given) VH: EVQLVESGGGLVQPGGSLRLSCAASGFTFSDYGIHWVRQAPGKGLEWIAYISRGSSTIYYADTVKGRFTISRDNAKNSLYLQMTSLRAEDTAVYYCARGGYDTRNAMDYWGQGTTVTVSS VL: DIVMTQSPDSLAVSLGERATISCKSSQSLLNSGNQKNYLAWYQQKPGQPPKLLIYGASTRASGVPDRFSGSGSGTDFTLTISSLQAEDVAIYHCQNDLYYPLTFGQGTKLEIKR | – | – | – | – | 94 nM | > 500 nM | 78.7 | 49 | –
3 | ADC-2 (antibody, human IgG1, kappa, V domains shown, compound 9-A coupled to sulfhydryl groups after TCEP reduction; mean drug loading n=7.1 per antibody; positions not given) VH: EVQLVESGGGLVQPGGSLRLSCAASGFTFSDYGIHWVRQAPGKGLEWIAYISRGSSTIYYADTVKGRFTISRDNAKNSLYLQMTSLRAEDTAVYYCARGGYDTRNAMDYWGQGTTVTVSS VL: DIVMTQSPDSLAVSLGERATISCKSSQSLLNSGNQKNYLAWYQQKPGQPPKLLIYGASTRASGVPDRFSGSGSGTDFTLTISSLQAEDVAIYHCQNDLYYPLTFGQGTKLEIKR | – | – | – | – | 1.9 nM | 109 nM | 91.1 | 69.8 | in vitro cell killing EC50, NUGC4-claudin18.2 moderate expression cells (CellTiter-Glo) [5]: 16.8 nM
4 | ADC-5 (antibody, human IgG1, kappa, V domains shown, compound 9-A coupled to sulfhydryl groups after TCEP reduction; mean drug loading n=6.8 per antibody; positions not given) VH: EVQLVESGGGLVQPGGSLRLSCAASGFTFSDYGIHWVRQAPGKGLEWIAYISRGSSTIYYADTVKGRFTISRDNAKNSLYLQMTSLRAEDTAVYYCARGGYDTRNAMDYWGQGTTVTVSS VL: DIVMTQSPDSLAVSLGERATISCKSSQSLLNSGNQKNYLAWYQQKPGQPPKLLIYGASTRASGVPDRFSGSGSGTDFTLTISSLQAEDVAIYHCQNDLYYPLTFGQGTKLEIKR | – | – | – | – | 3.5 nM | 142 nM | 95.9 | 69.9 | –
5 | IMAB-362 (antibody, human IgG1, kappa, V domains shown, Positive control antibody, from WO2016166122; also called positive control antibody) VH: QVQLQQPGAELVRPGASVKLSCKASGYTFTSYWINWVKQRPGQGLEWIGNIYPSDSYTNYNQKFKDKATLTVDKSSSTAYMQLSSPTSEDSAVYYCTRSWRGNSFDYWGQGTTLTVSS VL: DIVMTQSPSSLTVTAGEKVTMSCKSSQSLLNSGNQKNYLTWYQQKPGQPPKLLIYWASTRESGVPDRFTGSGSGTDFTLTISSVQAEDLAVYYCQNDYSYPFTFGSGTKLEIKR | 1.11 | 0.086 nM | 1.18 | 0.108 nM | – | – | – | – | Kd [2]: 10.2 nM; Emax [8]: 0.88; EC50 [9]: 0.187 nM; ADCC effect, IC50 (FcrR3A-V158-NFAT-RE-Jurkat reporter; NUGC4 cells, high Claudin18.2 expression) [4]: 0.133 µg/mL; ADCC effect, IC50 (FcrR3A-V158-NFAT-RE-Jurkat reporter; NUGC4 cells, low Claudin18.2 expression) [4]: 0.183 µg/mL; ADCC effect, IC50 (FcrR3A-V158-NFAT-RE-Jurkat reporter; NUGC4 cells, moderate Claudin18.2 expression) [4]: 0.21 µg/mL

More lines, main results first:

Row | Emax [1] | EC50 [3] | Emax [6] | EC50 [7] | Binder | in vitro cell killing EC50, NUGC4-claudin18.2 high expression cells (CellTiter-Glo) [5] | in vitro cell killing EC50, NUGC4-claudin18.2 low expression cells (CellTiter-Glo) [5] | in vitro cell killing Emax, NUGC4-claudin18.2 high expression cells (CellTiter-Glo) [5] | in vitro cell killing Emax, NUGC4-claudin18.2 low expression cells (CellTiter-Glo) [5] | further results
6 | 1.44 | 0.076 nM | – | – | h1901-11 (antibody, human IgG1, kappa, V domains shown, Humanized antibody of mAb1901, L3 + H3, human IgG1/kappa) VH: EVQLVESGGGLVQPGGSLRLSCAASGFTFSDYGIHWVRQAPGKGLEWIAYISRGSSTIYYADTVKGRFTISRDNAKNSLYLQMTSLRAEDTAVYYCARGGYDTRNAMDYWGQGTTVTVSS VL: DIVMTQSPDSLAVSLGERATISCKSSQSLLNSGNQKNYLAWYQQKPGQPPKLLIYGASTRASGVPDRFSGSGSGTDFTLTISSLQAEDVAIYHCQNDLYYPLTFGQGTKLEIKR | – | – | – | – | Kd [2]: 6.8 nM; ADCC effect, IC50 (FcrR3A-V158-NFAT-RE-Jurkat reporter; NUGC4 cells, high Claudin18.2 expression) [4]: 0.0262 µg/mL; ADCC effect, IC50 (FcrR3A-V158-NFAT-RE-Jurkat reporter; NUGC4 cells, low Claudin18.2 expression) [4]: 0.0224 µg/mL; ADCC effect, IC50 (FcrR3A-V158-NFAT-RE-Jurkat reporter; NUGC4 cells, moderate Claudin18.2 expression) [4]: 0.0154 µg/mL
7 | 1.22 | 0.116 nM | – | – | h1901-12 (antibody, human IgG1, kappa, V domains shown, Humanized antibody of mAb1901, L3 + H4, human IgG1/kappa) VH: EVQLVESGGGLVQPGGSLRLSCAASGFTFSDYGIHWVRQAPGKGLEWVAYISRGSSTIYYADTVKGRFTMSRDNAKNSLYLQMTSLRAEDTAVYYCARGGYDTRNAMDYWGQGTTVTVSS VL: DIVMTQSPDSLAVSLGERATISCKSSQSLLNSGNQKNYLAWYQQKPGQPPKLLIYGASTRASGVPDRFSGSGSGTDFTLTISSLQAEDVAIYHCQNDLYYPLTFGQGTKLEIKR | – | – | – | – | –
8 | – | – | 1.4 | 0.098 nM | chimeric antibody ch1901 (antibody, human IgG1, kappa, V domains shown, Murine mAb1901 variable regions on human IgG1 / kappa constant regions) VH: EVQLMESGGGLVKPGGSLKLSCAASGFTFSDYGIHWVRQAPEMGLEWIAYISRGSSTIYYADTVKGRFTMSRDNAKNTLFLQMTSLRSEDTAMYYCARGGYDTRNAMDYWGQGTSVTVSS VL: DIVMTQSPSSLSVSAGEKVTMSCKSSQSLLNSGNQKNYLAWYQQKPGQPPKLLIYGASTRASGVPDRFTGSGSGTDFTLTISSVQAEDLAIYHCQNDLYYPLTFGAGTKLELKR | – | – | – | – | –
9 | – | – | 1.27 | 0.074 nM | chimeric antibody ch1902 (antibody, human IgG1, kappa, V domains shown, Murine mAb1902 variable regions on human IgG1 / kappa constant regions) VH: EVQLQESGAELVKPGASVKLSCKASGYIFTSYWMHWVKQRPGQGLEWIGMIHPNSGSTNYNEKFKGKATLTLDKSSSTAYMQLSSLPSEDSAVYYCARLKTGNSFDYWGQGTTLTVSS VL: DIVLTQSPSSLTVTAGEKVTMSCKSSQSLLNSGNQKNYLTWYQQKPGQPPKLLIYWASTRESGVPDRFTGSGSGTDFTLTISSVQAEDLAIYYCQNAYTYPFTFGSGTKLEIKR | – | – | – | – | –
